Experiments:
Test in all cases: cell-based or functional assay
[1] = target: H7N9病毒Nanjing-06病毒株 (H7N9病毒)
[2] = target: H7N9病毒Suzhou-03病毒株 (H7N9病毒)
[3] = target: H7N9病毒Wuxi-01病毒株 (H7N9病毒)
[4] = target: H7N9病毒Wuxi-02病毒株 (H7N9病毒)

B1: 全人源抗H7N9病毒的单克隆中和抗体mAb635 (antibody, V domains shown)
VH: TGVHSQVQLVQSGAEVKKPGASVKISCKASGYSFTNYTLHWVRQAPGQRLEWMGWINAGNGNTRYSQKFQARVTITRDTSASTGYMEVSSLRSEDTAVYYCARGAYYGFWNGHYMGDDDNYYYGMGVWGQGPRSPSPQRR
VL: TGSLSQPVLTQPPSVSVSPGQTASITCSGDKLGDKYACWYQQKPGQSPVQVIYQDTKRPSGIPERFSGSNSGDTATLTISGTQSVDEADYYCQAWDSSRDVVFGGGTKLTVLGQPKAAPSVTLFPTLE
Q: Which results are given for B1?
A: 中和100×TCID50病毒需要的抗体量 [1]: 80 ng; 中和100×TCID50病毒需要的抗体量 [2]: 80 ng; 中和100×TCID50病毒需要的抗体量 [3]: 160 ng; 中和100×TCID50病毒需要的抗体量 [4]: 320 ng
